The values that follow are results of earlier work, collected in paper PMC4289615.

The data set deals with IL-2Rβγ (intermediate-affinity IL-2 receptor) (Homo sapiens) (UniProt P14784).
Sequence of UniProt P14784 (P14784 27-240, chain 1 of 2): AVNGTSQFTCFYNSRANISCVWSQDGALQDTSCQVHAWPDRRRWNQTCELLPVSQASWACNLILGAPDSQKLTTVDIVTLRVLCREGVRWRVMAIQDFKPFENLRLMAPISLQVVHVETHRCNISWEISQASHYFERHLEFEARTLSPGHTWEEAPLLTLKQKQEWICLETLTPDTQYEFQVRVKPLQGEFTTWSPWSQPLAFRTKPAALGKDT
Sequence of UniProt P14784 (P31785 23-262, chain 2 of 2, further chain): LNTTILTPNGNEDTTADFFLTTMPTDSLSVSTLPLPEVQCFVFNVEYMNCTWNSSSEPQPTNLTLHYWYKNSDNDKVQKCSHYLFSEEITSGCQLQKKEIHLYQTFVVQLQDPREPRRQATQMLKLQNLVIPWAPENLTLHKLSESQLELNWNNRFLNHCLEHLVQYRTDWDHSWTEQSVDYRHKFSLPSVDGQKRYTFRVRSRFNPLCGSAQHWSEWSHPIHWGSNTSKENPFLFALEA

Sequence of IL-2 (P60568 21-153): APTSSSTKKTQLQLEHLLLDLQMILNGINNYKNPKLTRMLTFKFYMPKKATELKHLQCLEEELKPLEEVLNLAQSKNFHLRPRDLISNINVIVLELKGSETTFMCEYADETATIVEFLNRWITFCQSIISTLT

As usually defined, the Kd is a measure of binding affinity in units of concentration. As to IL-2 (from UniProt P60568), the equilibrium dissociation constant (Kd) is 1 nM.
